Experimental data from paper PMC9922296, “Mechanistic insights into RNA surveillance by the canonical poly(A) polymerase Pla1 of the MTREC complex” (Nature Communications, 2023).
“And” between values parts separate entries of the source, which are not always exact repeats. Equal entries are not always repeated. No end group written: not given here.

Assays:
[1] = target: T1, Pla1RRM (C-terminal RRM domain of Pla1, residues 352-566) (S. pombe, UniProt Q10295 352-566); test: ITC; control of the competition: Iss1 30-76 titrated into Pla1RRM pre-incubated with a 1.1-fold molar excess of Red1 288-345 W298A/F305A; 25 °C; 20 mM HEPES pH 7.5, 150 mM NaCl, 2 mM BME; conditions: both partners purified
T1 construct: Pla1, canonical poly(A) polymerase, S. pombe, C-terminal RRM domain, residues 352-566; also called Pla1 RRM domain; Pla1 CTD; source: E. coli BL21 (DE3) Rosetta2, purified (His-Trap, TEV cleavage, Resource Q, Superdex 200); not shown: His6, N-terminal, cleaved
T1 sequence (looked up): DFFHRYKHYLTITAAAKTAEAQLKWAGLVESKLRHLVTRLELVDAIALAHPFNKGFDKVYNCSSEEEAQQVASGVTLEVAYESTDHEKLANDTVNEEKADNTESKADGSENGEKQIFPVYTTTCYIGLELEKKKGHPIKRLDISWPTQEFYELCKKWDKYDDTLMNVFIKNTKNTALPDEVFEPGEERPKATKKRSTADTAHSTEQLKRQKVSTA

[2] = target: T1, Pla1RRM (C-terminal RRM domain of Pla1, …); test: ITC; Red1 or Iss1 construct in the syringe (400-500 µM) titrated into Pla1RRM (wild type or mutant) in the cell (40-50 µM); 25 °C; 20 mM HEPES pH 7.5, 150 mM NaCl, 2 mM BME; one-binding site model; each independent measurement listed; conditions: both partners purified
[3] = target: T1, Pla1RRM (C-terminal RRM domain of Pla1, …); test: NMR titration; 1.5-fold molar excess of unlabelled Pla1RRM added to 0.3 mM 15N-labelled GB1-tagged Red1 constructs; 1H,15N-HSQC; 293 K; sodium phosphate pH 6.5, 100 mM NaCl; conditions: both partners purified
[4] = target: T2, C-terminal RRM domain of Pla1 (Pla1RRM, residues 352-566), purified (S. pombe, UniProt Q10295 352-566); test: ITC; competition: Red1_(288-345) titrated into Pla1RRM pre-incubated with a 1.1-fold molar excess of Iss1_(30-76); 25 °C, 20 mM HEPES pH 7.5, 150 mM NaCl, 2 mM BME; conditions: both partners purified
T2 construct: canonical poly(A) polymerase Pla1, S. pombe, C-terminal RRM domain, residues 352-566; also called Pla1 CTD; source: E. coli BL21 (DE3) Rosetta2, purified (His-Trap, TEV cleavage, Resource Q, Superdex 200); not shown: His6, N-terminal, cleaved
T2 sequence (looked up): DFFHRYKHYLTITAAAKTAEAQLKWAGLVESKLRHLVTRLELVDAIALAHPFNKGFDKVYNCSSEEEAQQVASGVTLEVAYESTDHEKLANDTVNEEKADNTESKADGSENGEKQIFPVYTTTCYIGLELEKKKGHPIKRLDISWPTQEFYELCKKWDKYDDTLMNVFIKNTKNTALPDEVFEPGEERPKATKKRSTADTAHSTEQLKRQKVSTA

[5] = target: T3, Pla1EEE: Pla1RRM with K544/K545/R546 changed to EEE (S. pombe, UniProt Q10295 352-566, K544/K545/R546 to EEE); test: ITC; MicroCal PEAQ-ITC, 25 °C, 20 mM HEPES pH 7.5, 150 mM NaCl, 2 mM BME; 40-50 µM protein in the cell, 400-500 µM ligand in the syringe; one-binding site model; conditions: both partners purified
T3 construct: canonical poly(A) polymerase Pla1, S. pombe, RRM domain, residues 352-566 with K544/K545/R546 to EEE; source: E. coli BL21 (DE3) Rosetta2, purified; not shown: His6, N-terminal, cleaved
T3 sequence (looked up): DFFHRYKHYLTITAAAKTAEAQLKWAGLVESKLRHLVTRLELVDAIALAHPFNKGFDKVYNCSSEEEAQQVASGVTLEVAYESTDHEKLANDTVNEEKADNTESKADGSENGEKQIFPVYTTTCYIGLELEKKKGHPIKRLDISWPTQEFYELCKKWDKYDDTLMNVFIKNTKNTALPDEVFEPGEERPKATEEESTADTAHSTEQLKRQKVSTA

[6] = target: T4, Pla1RRM with the charge reversal mutation K368E (S. pombe, UniProt Q10295 352-566, K368E); test: as above; conditions: both partners purified
T4 construct: canonical poly(A) polymerase Pla1, S. pombe, RRM domain, residues 352-566 with K368E; source: E. coli BL21 (DE3) Rosetta2, purified; not shown: His6, N-terminal, cleaved
T4 sequence (looked up): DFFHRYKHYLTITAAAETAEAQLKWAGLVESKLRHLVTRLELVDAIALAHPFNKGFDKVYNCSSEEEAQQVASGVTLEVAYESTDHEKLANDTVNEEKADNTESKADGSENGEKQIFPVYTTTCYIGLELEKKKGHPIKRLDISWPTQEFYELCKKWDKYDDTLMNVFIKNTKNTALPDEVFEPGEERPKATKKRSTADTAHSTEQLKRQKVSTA

[7] = target: T2, C-terminal RRM domain of Pla1 (Pla1RRM, …); test: as above; conditions: both partners purified
[8] = target: T5, Pla1_(EEQE): Pla1RRM with K559/R560/Q561/K562 changed to EEQE (S. pombe, UniProt Q10295 352-566, K559/R560/Q561/K562 to EEQE); test: as above; conditions: both partners purified
T5 construct: canonical poly(A) polymerase Pla1, S. pombe, RRM domain, residues 352-566 with K559/R560/Q561/K562 to EEQE; source: E. coli BL21 (DE3) Rosetta2, purified; not shown: His6, N-terminal, cleaved
T5 sequence (looked up): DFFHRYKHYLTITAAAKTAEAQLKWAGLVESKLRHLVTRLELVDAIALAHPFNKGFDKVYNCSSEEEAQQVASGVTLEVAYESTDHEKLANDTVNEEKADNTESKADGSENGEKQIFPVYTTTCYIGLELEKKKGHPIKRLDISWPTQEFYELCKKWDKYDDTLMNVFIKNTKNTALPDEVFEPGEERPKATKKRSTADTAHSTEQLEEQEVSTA

[9] = target: T6, Pla1RRM with the charge reversal mutation K368E (S. pombe, UniProt Q10295 352-566, K368E); test: ITC
T6 sequence: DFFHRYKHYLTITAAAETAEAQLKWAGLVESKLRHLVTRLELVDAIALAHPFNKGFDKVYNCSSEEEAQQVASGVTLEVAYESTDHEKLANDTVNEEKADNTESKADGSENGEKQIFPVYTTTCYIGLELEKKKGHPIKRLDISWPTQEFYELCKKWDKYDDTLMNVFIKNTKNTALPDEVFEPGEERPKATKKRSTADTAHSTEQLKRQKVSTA

[10] = target: T7, Pla1EEE: Pla1RRM with K544/K545/R546 changed to EEE (S. pombe, UniProt Q10295 352-566, K544/K545/R546 to EEE); test: ITC
T7 sequence: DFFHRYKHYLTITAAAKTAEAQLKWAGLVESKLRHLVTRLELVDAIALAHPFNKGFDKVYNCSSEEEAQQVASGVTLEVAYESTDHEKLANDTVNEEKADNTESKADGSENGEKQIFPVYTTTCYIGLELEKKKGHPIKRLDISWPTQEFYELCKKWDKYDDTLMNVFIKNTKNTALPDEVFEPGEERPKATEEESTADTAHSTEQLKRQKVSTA

[11] = target: T8, Pla1_(EEQE): Pla1RRM with K559/R560/Q561/K562 changed to EEQE (S. pombe, UniProt Q10295 352-566, K559/R560/Q561/K562 to EEQE); test: ITC
T8 sequence: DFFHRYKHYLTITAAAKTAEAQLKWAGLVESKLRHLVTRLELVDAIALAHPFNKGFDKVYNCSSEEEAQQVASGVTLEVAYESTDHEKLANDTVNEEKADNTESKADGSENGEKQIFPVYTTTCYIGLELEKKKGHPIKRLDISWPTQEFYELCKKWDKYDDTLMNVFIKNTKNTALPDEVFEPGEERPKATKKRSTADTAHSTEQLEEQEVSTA

[12] = target: T1, Pla1RRM (C-terminal RRM domain of Pla1, …); test: ITC; competition: Red1 288-345 titrated into Pla1RRM pre-incubated with a 1.1-fold molar excess of Iss1 30-76; 25 °C; 20 mM HEPES pH 7.5, 150 mM NaCl, 2 mM BME; conditions: both partners purified
Pla1RRM EEQE = target: T9, Pla1RRM EEQE (S. pombe, UniProt Q10295 352-566, K559/R560/Q561/K562 to EEQE); test: ITC; Red1 or Iss1 construct in the syringe (400-500 µM) titrated into Pla1RRM (wild type or mutant) in the cell (40-50 µM); 25 °C; 20 mM HEPES pH 7.5, 150 mM NaCl, 2 mM BME; one-binding site model; each independent measurement listed; conditions: both partners purified
T9 construct: Pla1, S. pombe, C-terminal RRM domain, residues 352-566; also called Pla1_(EEQE); K559/R560/Q561/K562 to EEQE; source: E. coli BL21 (DE3) Rosetta2, purified (His-Trap, TEV cleavage, Resource Q, Superdex 200); not shown: His6, N-terminal, cleaved
T9 sequence (looked up): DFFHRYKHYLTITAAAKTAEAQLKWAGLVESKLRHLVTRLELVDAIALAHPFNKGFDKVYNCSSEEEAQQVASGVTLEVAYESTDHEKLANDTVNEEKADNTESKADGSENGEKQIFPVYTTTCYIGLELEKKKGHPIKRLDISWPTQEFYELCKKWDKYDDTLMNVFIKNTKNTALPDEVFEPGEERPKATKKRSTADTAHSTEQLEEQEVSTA

Pla1RRM EEE = target: T10, Pla1RRM EEE (S. pombe, UniProt Q10295 352-566, K544/K545/R546 to EEE); test: as above; conditions: both partners purified
T10 construct: Pla1, S. pombe, C-terminal RRM domain, residues 352-566; also called Pla1EEE; K544/K545/R546 to EEE; source: E. coli BL21 (DE3) Rosetta2, purified (His-Trap, TEV cleavage, Resource Q, Superdex 200); not shown: His6, N-terminal, cleaved
T10 sequence (looked up): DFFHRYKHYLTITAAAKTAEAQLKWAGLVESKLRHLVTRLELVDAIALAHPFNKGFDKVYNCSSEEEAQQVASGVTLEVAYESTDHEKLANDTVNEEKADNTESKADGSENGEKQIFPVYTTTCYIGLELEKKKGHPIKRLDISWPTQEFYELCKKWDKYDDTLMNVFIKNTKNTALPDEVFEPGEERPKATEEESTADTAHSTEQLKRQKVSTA

Pla1RRM K368E = target: T11, Pla1RRM K368E (S. pombe, UniProt Q10295 352-566, K368E); test: as above; conditions: both partners purified
T11 construct: Pla1, S. pombe, C-terminal RRM domain, residues 352-566; source: E. coli BL21 (DE3) Rosetta2, purified (His-Trap, TEV cleavage, Resource Q, Superdex 200); not shown: His6, N-terminal, cleaved
T11 sequence (looked up): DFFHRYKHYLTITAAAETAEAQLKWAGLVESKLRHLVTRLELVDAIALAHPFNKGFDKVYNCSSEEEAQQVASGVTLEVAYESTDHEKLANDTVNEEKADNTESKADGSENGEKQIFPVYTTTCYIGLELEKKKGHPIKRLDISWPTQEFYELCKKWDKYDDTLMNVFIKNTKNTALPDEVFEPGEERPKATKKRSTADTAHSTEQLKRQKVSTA

B1: Iss1 30-76 (domain or fragment, S. pombe)
chain: VSNAKSPEQASEESDDSDIEFIIETKPGERAEPLGGSIATLGSTRPS
notes: Iss1 (fission yeast orthologue of scFip1), S. pombe, residues 30-76; source: E. coli BL21 (DE3) Rosetta2, purified (His-Trap, TEV cleavage, second IMAC flow-through, Superdex 75); not shown: His-Thioredoxin, N-terminal, cleaved
[1]
  stoichiometry N: 0.97 and 1
[2]
  Kd: 2.11 µM and 2.94 µM
  stoichiometry N: 1

B2: GB1-tagged Red1 288-322 (domain or fragment, S. pombe)
chain: ISLPLLKQDDWLSSSKPFGSSTPNVVIEFDSDDDG
modifications: not fully specified (N-terminus); also: 15N-labelled
notes: source: E. coli BL21 (DE3), 15N-labelled in M9 minimal medium, purified; not shown: GB1, N-terminal, kept; His6, C-terminal, kept
[3]
  binding result: binds

B3: Red1 residues 288-345 (Pla1 interaction region), purified (domain or fragment, S. pombe, UniProt Q9UTR8 288-345, looked up)
chain: ISLPLLKQDDWLSSSKPFGSSTPNVVIEFDSDDDGDDFSNSKIEQSNLEKPPSNSENG
notes: source: E. coli BL21 (DE3), purified (His-Trap, TEV cleavage, second IMAC, Superdex 75); not shown: GB1, N-terminal, cleaved; His6, C-terminal, kept
[4]
  KD into the pre-formed Pla1RRM-Iss1_(30-76) complex: 11 µM
[5]
  fold loss in affinity against wild-type Pla1RRM: ~7 fold
[6]
  fold loss in affinity against wild-type Pla1RRM: ~13 fold
[7]
  Kd: 1.4 µM
[8]
  fold loss in affinity against wild-type Pla1RRM: ~2 fold
[9]
  Kd: 17.8 µM
[10]
  Kd: 9.8 µM
[11]
  Kd: 2.8 µM

B4: Red1 288-345 (domain or fragment, S. pombe)
chain: ISLPLLKQDDWLSSSKPFGSSTPNVVIEFDSDDDGDDFSNSKIEQSNLEKPPSNSENG
notes: as for B3
[12]
  stoichiometry N: 1.11 and 1.82
Pla1RRM EEQE
  Kd: 3.28 µM and 2.27 µM
  stoichiometry N: 1.03 and 0.97
[2]
  Kd: 1.56 µM and 1.15 µM and 1.37 µM
  stoichiometry N: 1.05 and 0.952 and 1.19
Pla1RRM EEE
  Kd: 9.43 µM and 9.98 µM
  stoichiometry N: 0.86 and 0.94
Pla1RRM K368E
  Kd: 15.3 µM and 20.3 µM
  stoichiometry N: 0.8 and 1
